Reference: patent publication US20060058505A1, “Nucleic acid and polypeptide linked to breast cancer and uses therefor” (priority 2001, published 2006)

T1: His-tagged N-terminal SH3 domain containing region of rasGAP^120 (Homo sapiens, UniProt P20936)
T1 construct: containing amino acids 1-356 which includes the full SH3 domain of rasGAP^120; made in house; host or cells: E. coli (DH5), IPTG induction; used as bacterial lysate
T1 sequence (P20936 1-356): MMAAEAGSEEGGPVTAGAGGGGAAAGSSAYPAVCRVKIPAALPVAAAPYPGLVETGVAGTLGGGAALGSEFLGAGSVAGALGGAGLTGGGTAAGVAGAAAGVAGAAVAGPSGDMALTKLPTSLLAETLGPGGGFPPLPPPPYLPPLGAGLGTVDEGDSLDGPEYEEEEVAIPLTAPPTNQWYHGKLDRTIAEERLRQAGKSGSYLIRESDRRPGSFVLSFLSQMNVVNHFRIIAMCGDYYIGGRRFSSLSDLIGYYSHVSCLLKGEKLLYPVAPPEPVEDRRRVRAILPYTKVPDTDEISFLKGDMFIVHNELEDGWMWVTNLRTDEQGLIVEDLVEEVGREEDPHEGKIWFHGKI

B1: δ-2a-N329: GST fusion of truncated G3BP-2a peptide; number is the amino acid at the truncation site (protein, UniProt Q9UN86 1-329, looked up, fragment)
chain: MVMEKPSPLLVGREFVRQYYTLLNKAPEYLHRFYGRNSSYVHGGVDASGKPQEAVYGQNDIHHKVLSLNFSECHTKIRHVDAHATLSDGVVVQVMGLLSNSGQPERKFMQTFVLAPEGSVPNKFYVHNDMFRYEDEVFGDSEPELDEESEDEVEEEQEERQPSPEPVQENANSGYYEAHPVTNGIEEPLEESSHEPEPEPESETKTEELKPQVEEKNLEELEEKSTTPPPAEPVSLPQEPPKAFSWASVTSKNLPPSGTVSSSGIPPHVKAPVSQPRVEAKPEVQSQPPRVREQRPRERPGFPPRGPRPGRGDMEQNDSDNRRIIRYPD
modifications: isoform 2a GST fusion
notes: GST fusion of truncated G3BP-2a peptide; number is the amino acid at the truncation site
B2: δ-2a-N205: GST fusion of truncated G3BP-2a peptide; number is the amino acid at the truncation site (protein, UniProt Q9UN86 1-205, looked up, fragment)
chain: MVMEKPSPLLVGREFVRQYYTLLNKAPEYLHRFYGRNSSYVHGGVDASGKPQEAVYGQNDIHHKVLSLNFSECHTKIRHVDAHATLSDGVVVQVMGLLSNSGQPERKFMQTFVLAPEGSVPNKFYVHNDMFRYEDEVFGDSEPELDEESEDEVEEEQEERQPSPEPVQENANSGYYEAHPVTNGIEEPLEESSHEPEPEPESETK
modifications: isoform 2a GST fusion
notes: as for B1
B3: δ-2a-N257: GST fusion of truncated G3BP-2a peptide; number is the amino acid at the truncation site (protein, UniProt Q9UN86 1-257, looked up, fragment)
chain: MVMEKPSPLLVGREFVRQYYTLLNKAPEYLHRFYGRNSSYVHGGVDASGKPQEAVYGQNDIHHKVLSLNFSECHTKIRHVDAHATLSDGVVVQVMGLLSNSGQPERKFMQTFVLAPEGSVPNKFYVHNDMFRYEDEVFGDSEPELDEESEDEVEEEQEERQPSPEPVQENANSGYYEAHPVTNGIEEPLEESSHEPEPEPESETKTEELKPQVEEKNLEELEEKSTTPPPAEPVSLPQEPPKAFSWASVTSKNLPPS
modifications: isoform 2a GST fusion
notes: as for B1
B4: full length G3BP-2a: full length G3BP-2a expressed as GST-fusion protein (protein)
chain: MVMEKPSPLLVGREFVRQYYTLLNKAPEYLHRFYGRNSSYVHGGVDASGKPQEAVYGQNDIHHKVLSLNFSECHTKIRHVDAHATLSDGVVVQVMGLLSNSGQPERKFMQTFVLAPEGSVPNKFYVHNDMFRYEDEVFGDSEPELDEESEDEVEEEQEERQPSPEPVQENANSGYYEAHPVTNGIEEPLEESSHEPEPEPESETKTEELKPQVEEKNLEELEEKSTTPPPAEPVSLPQEPPKAFSWASVTSKNLPPSGTVSSSGIPSHVKAPVSQPRVEAKPEVQSQPPRVREQRPRERPGFPPRGPRPGRGDMEQNDSDNRRIIRYPDSHQLFVGNLPHDIDENELKEFFMSFGNVVELRINTKGVGGKLPNFGFVVFDDSEPVQRILIAKPIMFRGEVRLNVEEKKTRAARERETRGGGDDRRDIRRNDRGPGGPRGIVGGGMMRDRDGRGPPPRGGMAQKLGSGRGTGQMEGRFTGQRR
modifications: left off: a dimerising Fc or GST
notes: full length G3BP-2a expressed as GST-fusion protein
B5: δ-2a-N146: GST fusion of truncated G3BP-2a peptide including the N-terminal amino acids 1 to 146 (NTF2-like domain) (protein, UniProt Q9UN86 1-146, looked up, fragment)
chain: MVMEKPSPLLVGREFVRQYYTLLNKAPEYLHRFYGRNSSYVHGGVDASGKPQEAVYGQNDIHHKVLSLNFSECHTKIRHVDAHATLSDGVVVQVMGLLSNSGQPERKFMQTFVLAPEGSVPNKFYVHNDMFRYEDEVFGDSEPELD
modifications: isoform 2a GST fusion

Biological target: T2, HLA-A*0201 molecule (Homo sapiens, UniProt P04439, D140Y/D185E/D98H/E176V/E277Q/G131W/G231S/I119V/I121R/I166T/I218V/L300P/L318F/N151K/N90K/P208A/P217A/Q86G/Q94H/R138H/R169H/T345S)
T2 construct: endogenous in cells; host or cells: T2 cells
Test: MHC/peptide binding assay (T2 binding assay)
Details: reference influenza MP 58-66 peptide

Row | Molecule | binding to the HLA-A*0201 molecule
1 | IMFRGEVRL (human) [Peptide 2] | affinity equal to that of the control influenza MP 58-66 peptide
2 | KLPNFGFVV (Human) [Peptide 1] | affinity equal to that of the control influenza MP 58-66 peptide

Tested on: peripheral blood mononuclear cells (PBMC) from healthy individuals
Test: CTL responses induced by DC in PBMC, tested in IFN-γ ELISPOT
Format: cell-based
Details: after one (and two) round of stimulation, 2 separate donors
Description: The various peptides were evaluated for the generation of CTL responses induced by DC in peripheral blood mononuclear cells (PBMC) from healthy individuals and tested in ELISPOT (Gonzalez et al, 2000). T2 cells (target) pulsed with Peptide 1 or no peptide were labelled with ^51Cr and incubated with clone IH7 (effector) at various ratios. After 4 hours, ^51Cr released from lysed cells was measured and the percentage of specific lysis calculated with the formula: 100×(experimental release−spontaneous release)/(total release−spontaneous release). Total release was obtained with detergent lysis of labelled target.
Confirming this finding, we generated Peptide 1 specific CTL clones capable of identifying peptide-loaded targets in a classical chromium release assay (FIG. 11), the desired profile for an efficient anti-tumor response (Lopez and Hart, 2002), incorporated herein by reference. These clones will be instrumental in the evaluation of the expression of this antigen in cancer cells, allowing the formal evaluation of this molecule as a TAA.

Row | Molecule | CTL responses: IFN-γ producing peptide specific CD8+ lymphocytes
3 | KLPNFGFVV (Human) [Peptide 1] | Strong responses

Biological target: T1, His-tagged N-terminal SH3 domain containing region of rasGAP^120
Test: bead binding assay of GST-G3BP peptides with Western detection by anti-His antibody
Details: GST fusions bound to glutathione beads
Text: However, the region within the G3BPs responsible for the observed interaction with rasGAP^120 has not been thoroughly investigated. Initially it was presumed that the interactions would be facilitated through proline rich motifs that are known to interact with SH3 domains (Lee et al. 1996). To further map the interactions between G3BPs and the SH3 domain of rasGAP^120 several GST-G3BP peptide fusions were expressed (FIG. 4) and probed in bead binding assays with His-tagged N-terminal rasGAP^120 peptides. The G3BP peptide constructs were designed to represent truncated proteins containing single or multiple domains as well as peptides that would contain isolated proline rich motifs (FIG. 4). In the assays GST-G3BP peptides are bound to glutathione beads and His-tagged N-terminal rasGAP^120 is added to the different constructs. Specific protein-protein interactions between the G3BP peptides and the SH3 domain of rasGAP^120 are detected by running the bound proteins on a Western blot and identifying His-tagged rasGAP^120 by probing with an anti-His antibody. […] No interactions were detected with the other domains of G3BP including the Acid-Rich domain, the RRM or the RGG-rich domain (FIG. 4).
Truncated cDNAs representing either N-terminal or C-Terminal sequences of G3BP-1 and G3BP-2a (FIG. 2) were subcloned into bacterial GST-fusion expression vectors (pGex, Pharmacia) so that the recombinant fusion proteins could be expressed and used in bead binding assays (see below) to identify the sub-domains of G3BP that interact with the SH3 domain of rasGAP^120. The vectors containing the recombinant fusion protein construct were transformed into competent DH5′ E. Coli and expressed by IPTG induction. To collect the recombinant proteins the cells were washed and resuspended in PBS and sonicated to release the fusion proteins.
The N-terminal domain of rasGAP^120 (kindly provided by Prof. I.G. Macara, University of Virginia) containing amino acids 1-356 which includes the full SH3 domain of rasGAP^120 was subcloned into proEX HT bacterial expression vector (Life Technologies) and expressed as described above.
Glutathione columns (Pharmacia) were blocked overnight at 4° C. in 1× binding buffer A (50 mM HEPES pH 7.4, 100 mM NaCl, 5 mM MgCl2, 50 mg/ml BSA, 1 mM DTT, 1 mM PMFS and protease inhibitors (Protease inhibitor cocktail, Roche Diagnostics, Australia). The following day the columns were washed twice with binding buffer A. Bacterial lysates containing either expressed GST alone or GST fusion proteins were diluted 1:1 with 2× binding buffer A and added to the equilibrated GST columns, the columns were gently rocked overnight at 4° C. To remove excess proteins the columns were washed twice in 1× binding buffer A. Bacterial lysates containing the His-tagged N-terminal of rasGAP^120 protein were combined with an equal volume of 2× binding buffer A containing 200 mg/ml BSA and 0.1% Tween. In addition to the high concentration of BSA, which is used to block non-specific protein-protein interactions, Ethidium bromide was added to a final concentration of 25 ng/ml to abrogate non-specific interactions caused by excess bacterial genomic DNA and bacterial RNA. This mix was then added to the pre-bound GST columns (above) and allowed to bind for 2 hrs at 4° C. The columns were then washed three times with binding buffer B (50 mM HEPES pH 7.4, 200 mM NaCl, 5 mM MgCl2, 1 mM DTT, 1 mM PMFS and protease inhibitors).
One μl of the GST beads complexed with proteins, as described above, was added to an equal volume of 2×PAGE loading dye, heated for 5 mins at 95° C. and loaded onto a 7.5% Polyacrylamide gel and run at 100V for 3 hours. The proteins were transferred to Nitrocellulose and probed with anti-His antibodies (Tetra-His antibody, Qiagen). Columns, which were bound with GST alone, were used as negative controls to ensure no non-specific His-tagged N-terminal rasGAP^120 remained associated with the columns. […]

Row | Molecule | interaction with the N-terminal SH3 domain containing region of rasGAP^120
4 | full length G3BP-1: full length G3BP-1 expressed as GST-fusion protein | interact
5 | δ-1-N309: GST fusion of truncated G3BP-1 peptide; number is the amino acid at the truncation site | interact
6 | δ-1-N229: GST fusion of truncated G3BP-1 peptide; number is the amino acid at the truncation site | interact
7 | B1 | interacted
8 | B2 | interacted
9 | B3 | interacted
10 | B4 | interacted
11 | B5 | interacted

Biological target: T3, HLA-A*0201 molecule on T2 cells
T3 construct: whole, on cells
Test: T2 binding assay, HLA expression by flow cytometry
Details: not given

Row | Molecule | binding result
12 | IMFRGEVRL [Peptide 2 of G3BP-2 (IMFRGEVRL)] | binds
13 | KLPNFGFVV [Peptide 1 of G3BP-2 (KLPNFGFVV)] | binds
